Among the data in paper PMC4980077 are change of FRET signal after forskolin and Kd values, retold here.

By pKd is commonly meant the negative decadic logarithm of the Kd, by convention in mol/L.

The target in test [1] is smAKAP-wt-GFP (human) (UniProt Q9BSF0). In words: FRET or BRET. For orientation: BRET reads energy transfer from a luciferase to a nearby fluorophore.
Test [2] has as its target PKA-RIβ (Homo sapiens) (UniProt P31321). Put plainly: fluorescence polarization. The note with it: cited from earlier work. Background: In fluorescence polarisation assays a small probe gives low polarisation when free and higher when bound to something large.
Test [3] addresses PKA-RIα (Homo sapiens) (UniProt P10644). Put plainly: fluorescence polarization. The settings on record: cited from earlier work.

pKd: −log10 of the molar value.

Chain of smAKAP (Q9BSF0 2-95): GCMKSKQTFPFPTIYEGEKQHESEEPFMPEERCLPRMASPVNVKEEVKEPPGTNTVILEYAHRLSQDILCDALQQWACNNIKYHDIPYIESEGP
Chain of PKA-RIα (Homo sapiens) (P10644 whole entry): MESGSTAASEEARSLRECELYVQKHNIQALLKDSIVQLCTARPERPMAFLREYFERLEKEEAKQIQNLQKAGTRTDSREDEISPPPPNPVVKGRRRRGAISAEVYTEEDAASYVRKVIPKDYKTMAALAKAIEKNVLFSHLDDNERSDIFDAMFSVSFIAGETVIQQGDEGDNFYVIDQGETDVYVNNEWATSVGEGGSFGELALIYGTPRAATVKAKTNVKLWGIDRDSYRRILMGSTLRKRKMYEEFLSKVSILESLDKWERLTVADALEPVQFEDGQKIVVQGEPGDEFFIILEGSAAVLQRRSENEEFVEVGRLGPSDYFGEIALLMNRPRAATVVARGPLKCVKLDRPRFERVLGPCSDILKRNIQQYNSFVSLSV
Chain of smAKAP-wt-GFP (human) (Q9BSF0 whole entry): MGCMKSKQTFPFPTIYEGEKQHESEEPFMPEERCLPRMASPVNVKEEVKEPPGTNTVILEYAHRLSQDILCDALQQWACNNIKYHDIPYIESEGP

As to “PKA-RIβ-mKO2 (from UniProt P31321 1-381) (natural protein)”, in test [1], the change of FRET signal after forskolin is -2.3%.

For the substance smAKAP (from UniProt Q9BSF0), the pKd in test [2] is 8.16; in test [3] it was 8.17.
